Reference: patent publication US20180111996A1

Experiments:
[1] = target: human PD-1 (hPD-1) receptor expressed on cells (human) (UniProt Q15116); assay: FACS, blockade of hPD-L1/Fc binding to CHO cells expressing human PD-1
[2] = target: human PD-1 (hPD-1) receptor expressed on cells (human) (UniProt Q15116); assay: FMAT, blockade of labeled hPD-L2/Fc binding to CHO-hPD-1 cells
[3] = target: human PD-1 (hPD-1) receptor expressed on cells (human) (UniProt Q15116); assay: FMAT, blockade of labeled hPD-L1/Fc binding to CHO-hPD-1 cells
[4] = target: hPD-1/Fc (R & D Systems) (human) (UniProt Q15116); assay: bio-light interferometry (ForteBio Octet), PD-1/Fc on biosensor
Sequence of hPD-1/Fc (R & D Systems) (human) (Q15116 25-167 limits assumed): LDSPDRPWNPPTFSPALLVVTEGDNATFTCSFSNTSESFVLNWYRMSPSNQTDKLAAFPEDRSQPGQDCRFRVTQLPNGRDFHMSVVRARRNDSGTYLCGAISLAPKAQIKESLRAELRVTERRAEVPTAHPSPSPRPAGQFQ

[5] = target: human PD-1 (hPD-1) receptor expressed on cells (human) (UniProt Q15116); assay: CELISA on CHO-hPD-1 cells
[6] = target: hPD-1/Fc (R & D Systems) (human) (UniProt Q15116); assay: protein ELISA, hPD-1/Fc immobilized
[7] = target: human PD-1 (hPD-1) receptor expressed on cells (human) (UniProt Q15116); assay: FACS, blockade of hPD-L1/Fc binding to CHO cells expressing human PD-1; remark: listed apart in the source

Sequence of human PD-1 (hPD-1) receptor expressed on cells (human) (Q15116 25-288): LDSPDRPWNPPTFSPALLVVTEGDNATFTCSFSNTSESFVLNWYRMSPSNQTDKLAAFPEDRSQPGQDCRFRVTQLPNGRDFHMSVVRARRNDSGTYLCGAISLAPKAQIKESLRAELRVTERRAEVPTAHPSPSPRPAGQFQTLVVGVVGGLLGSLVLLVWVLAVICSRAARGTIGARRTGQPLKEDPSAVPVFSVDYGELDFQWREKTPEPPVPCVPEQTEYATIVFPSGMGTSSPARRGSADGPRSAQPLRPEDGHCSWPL

With “Anti-PD-1 antibody clone J116 (eBioscience #14-9989)” the IC50 [1] was > 100 nM, the IC50 [2] was 0.044 nM and the IC50 [3] was > 0.1 nM. The Kd [4] was 1.82 nM, the koff [4] was 0.00015 s⁻¹ and the kon [4] was 82400 M⁻¹ s⁻¹. For the same substance, the EC50 [5] was 0.349 nM, the EC50 [6] was 0.41 nM and the IC50 [7] was 0.106 nM.
